The values below come from article PMC8258697 (The Journal of Biological Chemistry, 2021).

For data set [1], the target named is T1, biotinylated CBP-1 cofactor peptide (CREB-binding protein coactivator motif 1) (N-terminal biotin).
T1 construct: coupled to Tb-streptavidin in the assay; also called CBP-1 peptide; CBP-derived peptide; source: bought: Eurogentec GmbH
T1 peptide: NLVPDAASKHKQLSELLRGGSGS
Nature of the data set: AlphaScreen or HTRF; as a27, with SR11237 (up to 100 μM) titrated together with unlabeled RXRα total mutant LBD (up to 8 μM); referenced to isolated sGFP-PPARγ LBD activated by rosiglitazone. Conditions: both partners purified. A general note: In Alpha technology, singlet oxygen from a donor bead excites a nearby acceptor bead.

For the next data set, the target named is T2, RXRα LBD (Homo sapiens, UniProt P19793).
T2 construct: His10-tag with TEV site (N, cleaved yes); made in house; host or cells: E. coli T7 express (co-expressed with GroEL/ES)
T2 sequence (P19793 226-462): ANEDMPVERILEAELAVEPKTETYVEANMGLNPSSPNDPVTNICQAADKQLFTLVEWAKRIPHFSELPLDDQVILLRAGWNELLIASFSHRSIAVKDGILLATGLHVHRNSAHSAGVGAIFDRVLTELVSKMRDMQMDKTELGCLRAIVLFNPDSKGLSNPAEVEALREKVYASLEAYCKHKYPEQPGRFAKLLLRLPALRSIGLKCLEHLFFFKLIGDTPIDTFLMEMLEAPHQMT
Nature of the data set: LBD:LBD heterodimer formation HTRF assay, sGFP-PPAR LBD titrated against biotinylated RXRα LBD coupled to Tb-SA. Type of data set: binding. The note with it: sGFP-PPAR LBD titrated up to […]; 0.375 nM RXRα; no ligand; read-out: apparent Kd of heterodimer formation with RXRα LBD.

Data set [2] concerns the target T3, biotinylated RXRα LBD (N-terminal Avi-tag) (human, UniProt P19793-1 226-462, biotin on the Lys residue in the Avi-tag).
T3 chain: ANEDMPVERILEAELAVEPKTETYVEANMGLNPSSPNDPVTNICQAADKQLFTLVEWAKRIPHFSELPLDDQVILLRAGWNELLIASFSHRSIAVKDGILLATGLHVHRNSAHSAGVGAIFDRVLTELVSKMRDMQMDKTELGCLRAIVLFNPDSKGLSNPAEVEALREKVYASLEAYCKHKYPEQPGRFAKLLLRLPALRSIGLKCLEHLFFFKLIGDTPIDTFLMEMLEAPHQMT
Nature of the data set: FRET.

Data set [3] deals with the molecule itself. Nature of the data set: SEC; size exclusion chromatography during purification; 16/600 Superdex75 (and 16/600 Superdex200 for sGFP-RXRα) in 25 mM Hepes pH 7.5, 150 mM KF, 10% glycerol, 5 mM DTT.
Another data set has as its target T4, sGFP-PPARα LBD (human, UniProt Q07869-1 198-468).
T4 construct: PPARα LBD, human, UniProt Q07869-1, residues 198-468; source: E. coli T7 express, coexpressed with GroEL/ES, purified (Ni IMAC, TEV, reverse IMAC, SEC); not shown: His10, N-terminal, cleaved; sGFP, N-terminal, kept
T4 sequence (looked up): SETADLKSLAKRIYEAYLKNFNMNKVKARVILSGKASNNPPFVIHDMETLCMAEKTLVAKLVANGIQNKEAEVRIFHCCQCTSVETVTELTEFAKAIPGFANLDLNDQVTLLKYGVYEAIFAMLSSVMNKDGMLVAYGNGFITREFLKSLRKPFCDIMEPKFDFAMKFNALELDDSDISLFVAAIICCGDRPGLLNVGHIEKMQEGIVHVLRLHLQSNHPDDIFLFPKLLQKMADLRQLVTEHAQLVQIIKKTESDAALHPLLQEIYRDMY
Nature of the data set: AlphaScreen or HTRF; LBD:LBD dimer formation; biotinylated RXRα LBD (0.375 nM) coupled to Tb-SA (0.75 nM) as FRET donor; sGFP-PPAR LBD titrated up to 4.8 μM, total sGFP kept constant with free sGFP; no ligand; HTRF assay buffer with 0.1% CHAPS and 1% DMSO; 1 h at RT; apparent Kd from the inflection point. The note with it: both partners purified.

The target in a further data set is T5, sGFP-PPARβ/δ LBD (human, UniProt Q03181-1 170-441).
T5 construct: PPARβ/δ LBD, human, UniProt Q03181-1, residues 170-441; also called PPARδ; source: E. coli T7 express, coexpressed with GroEL/ES, purified (Ni IMAC, TEV, reverse IMAC, SEC); not shown: His10, N-terminal, cleaved; sGFP, N-terminal, kept
T5 sequence (looked up): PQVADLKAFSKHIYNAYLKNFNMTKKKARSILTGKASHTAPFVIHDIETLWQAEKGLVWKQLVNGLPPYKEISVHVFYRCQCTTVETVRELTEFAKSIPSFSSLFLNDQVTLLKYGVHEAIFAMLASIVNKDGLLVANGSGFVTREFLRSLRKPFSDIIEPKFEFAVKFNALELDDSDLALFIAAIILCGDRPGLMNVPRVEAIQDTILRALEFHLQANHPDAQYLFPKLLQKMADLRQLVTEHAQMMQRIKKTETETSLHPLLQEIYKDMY
Described as above. Conditions: both partners purified.

“And” between values parts separate entries of the source, which are not always exact repeats. Equal entries are not always repeated.

B1: sGFP-PPARγ LBD:RXRα total mutant LBD (unlabeled) heterodimer (complex, human)
chain 1: PESADLRALAKHLYDSYIKSFPLTKAKARAILTGKTTDKSPFVIYDMNSLMMGEDKIKFKHITPLQEQSKEVAIRIFQGCQFRSVEAVQEITEYAKSIPGFVNLDLNDQVTLLKYGVHEIIYTMLASLMNKDGVLISEGQGFMTREFLKSLRKPFGDFMEPKFEFAVKFNALELDDSDLAIFIAVIILSGDRPGLLNVKPIEDIQDNLLQALELQLKLNHPESSQLFAKLLQKMTDLRQIVTEHVQLLQVIKKTETDMSLHPLLQEIYKDLY
chain 2: TSSANEDMPVERILEAELAVEPKTETYVEANMGLNPSSPNDPVTNICQAADKQLFTLTEWAERIPHFSELPLDDQTILLRAGWNELLIASFSHRSIAVKDGILLATGLHVHRNSAHSAGVGAIFDRVLTELVSKMRDMQMDKTELGCLRAIVLFNPDSKGLSNPAEVEALREKVYASLEAYCKHKYPEQPGRFAKLLLRLPALRSIGLKCLEHLFFFKLIGDTPIDTYLMRMLEAPHQMT
notes: PPARγ isoform 2 LBD, human, UniProt P37231-1, residues 234-505; RXRα LBD, human, residues 223-462, five AF-2 mutations; also called LBD:LBD heterodimer with RXRα; source: mixed from the purified E. coli proteins (100 nM sGFP-PPARγ LBD, RXRα total mutant LBD titrated); not shown: His10, N-terminal, cleaved; sGFP, N-terminal, kept; MBP, N-terminal, cleaved; His8, N-terminal, cleaved
On to B1, for which the “CBP-1 recruitment relative to full activation of monomeric PPARγ with rosiglitazone (%)” value in data set [1] worked out at 26%.

B2: PPARα: PPARα LBD as fusion protein with N-terminal sGFP (protein)
chain: SETADLKSLAKRIYEAYLKNFNMNKVKARVILSGKASNNPPFVIHDMETLCMAEKTLVAKLVANGIQNKEAEVRIFHCCQCTSVETVTELTEFAKAIPGFANLDLNDQVTLLKYGVYEAIFAMLSSVMNKDGMLVAYGNGFITREFLKSLRKPFCDIMEPKFDFAMKFNALELDDSDISLFVAAIICCGDRPGLLNVGHIEKMQEGIVHVLRLHLQSNHPDDIFLFPKLLQKMADLRQLVTEHAQLVQIIKKTESDAALHPLLQEIYRDMY
modifications: left off: His10, N-terminal, cleaved | sGFP, N-terminal, kept
B2: the Kd in the data set with RXRα LBD is 72 nM.

B3: PPARδ: PPARδ LBD as fusion protein with N-terminal sGFP (protein)
chain: PQVADLKAFSKHIYNAYLKNFNMTKKKARSILTGKASHTAPFVIHDIETLWQAEKGLVWKQLVNGLPPYKEISVHVFYRCQCTTVETVRELTEFAKSIPSFSSLFLNDQVTLLKYGVHEAIFAMLASIVNKDGLLVANGSGFVTREFLRSLRKPFSDIIEPKFEFAVKFNALELDDSDLALFIAAIILCGDRPGLMNVPRVEAIQDTILRALEFHLQANHPDAQYLFPKLLQKMADLRQLVTEHAQMMQRIKKTETETSLHPLLQEIYKDMY
modifications: left off: His10, N-terminal, cleaved | sGFP, N-terminal, kept
With B3, in the data set with RXRα LBD, the Kd was 363 nM.

B4: sGFP-RXRα LBD wildtype (domain or fragment, human, UniProt P19793-1 226-462, looked up)
chain: ANEDMPVERILEAELAVEPKTETYVEANMGLNPSSPNDPVTNICQAADKQLFTLVEWAKRIPHFSELPLDDQVILLRAGWNELLIASFSHRSIAVKDGILLATGLHVHRNSAHSAGVGAIFDRVLTELVSKMRDMQMDKTELGCLRAIVLFNPDSKGLSNPAEVEALREKVYASLEAYCKHKYPEQPGRFAKLLLRLPALRSIGLKCLEHLFFFKLIGDTPIDTFLMEMLEAPHQMT
notes: retinoid X receptor alpha (RXRα) LBD, human, UniProt P19793-1, residues 226-462; only the fractions eluting as monomer in the second SEC were used; also called RXRα as a fusion protein with sGFP; RXRα wt; source: E. coli T7 express, coexpressed with GroEL/ES, purified (Ni IMAC, TEV, two SEC steps); not shown: His10, N-terminal, cleaved; sGFP, N-terminal, kept
For B4, in data set [2], the Kd is 50 nM and 28 nM. The stoichiometry N (in general, a count of units in the complex or per binding partner) in data set [3] worked out at 2.

B5: biotinylated RXRα LBD (N-terminal Avi-tag) (domain or fragment, human, UniProt P19793-1 226-462, looked up)
chain: ANEDMPVERILEAELAVEPKTETYVEANMGLNPSSPNDPVTNICQAADKQLFTLVEWAKRIPHFSELPLDDQVILLRAGWNELLIASFSHRSIAVKDGILLATGLHVHRNSAHSAGVGAIFDRVLTELVSKMRDMQMDKTELGCLRAIVLFNPDSKGLSNPAEVEALREKVYASLEAYCKHKYPEQPGRFAKLLLRLPALRSIGLKCLEHLFFFKLIGDTPIDTFLMEMLEAPHQMT
modifications: biotin on the Lys residue in the Avi-tag
notes: retinoid X receptor alpha (RXRα) LBD, human, UniProt P19793-1, residues 226-462; coupled to Tb-streptavidin in the assay; also called biotin-labeled RXRα LBD; source: E. coli T7 express, coexpressed with GroEL/ES, purified (Ni IMAC, TEV and BirA, monomeric avidin, SEC); not shown: His10, N-terminal, cleaved; Avi-tag, N-terminal, kept
B5: the Kd with sGFP-PPARα LBD was found to be 72 nM; with sGFP-PPARβ/δ LBD it was 363 nM.
